# Assay results from the nanobody polyreactivity screen of Harvey et al. (2022).
# Test: yeast display, Sf9 membrane polyspecificity reagent, FACS + sequencing; frameworks hold sequencing errors
# Procedure, shortened: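 Nanobodies came from a synthetic yeast display library in Saccharomyces cerevisiae BJ5465, induced with galactose for 36–48 hours and stained for 1 hour at 4 °C with 10% biotinylated, detergent-solubilized Sf9 membrane reagent. Cells were enriched on streptavidin microbeads and then FACS-sorted, with low and high (top ~1%) gates set on anti-HA fluorescence for expression and streptavidin fluorescence for reagent binding. Each polyreactivity label reflects the gate a clone came from. Genes were amplified by colony PCR, sequenced by MiSeq 2 × 250 and filtered by CDR length.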
sequence,measurement,value
QVQLVESGGVLVQAGGSLRLSCAASGRIFRNYVMGWYRQAPGKEREMVAAISRSGGSTYYADSVKGRFTISRDNAKNTVYLQMNSLKPEDTAVYYCNAEYASRRVSERDYWGQGTQVTVSS,polyreactivity (PSR sort gate),high polyreactivity
QVQLVESGGVLVQAGGSLRLSCAASGRILFSYGMGWYRQATGKERELVARISWSGGNTHYADSVKGRFTISRDNAKNTVYLQMNSLKPEDTAVYYCNAYYTYWYPRYDYWGQGTQVTVSS,polyreactivity (PSR sort gate),low polyreactivity
QVQLVESGGVLVQAGGSLRLSCAASGRTFLNYTMGWYRQAPRKDIELVAAISTSGGSTNYADSVKGRFTISRDNAKNTVYLQMTSLKPEDTAVYYCAAETSTKPEAYEYWGQGTQVTVSS,polyreactivity (PSR sort gate),low polyreactivity
QVQLVESGGVLVQAGGSLRLSCAASGRTFYGYAMGWNRQAPGKERYLVAAIDIDVGNTYYADSVKGRFTISRDNAKNTVYLQMNSLKPEDTAVYYCAAEIPSWWLPALFRYDYWGQGTQVTVSS,polyreactivity (PSR sort gate),low polyreactivity
QVQLVESGGVLVQAGGSLRLSCAASGRTFYLYAMGWSRQAPGKERELVAAISRSGGITYYADSVKGRFTISRDNAKNTVYLQMNSLKPEDTAVYYCAASRAGGYYGKGYSWGQGTQVTVSS,polyreactivity (PSR sort gate),high polyreactivity
QVQLVESGGVLVQAGGSLRLSCAASGRTFYSYAMGWYRQAPGNERELVAAITSSGGSTYYADSVKGRFTISRDNAKNTVYLQMNRLKPEDTAVYYCAAPRGRHFDYWGQGTQVTVSS,polyreactivity (PSR sort gate),high polyreactivity
QVQLVESGGVLVQAGGSLRLSCAASGRTVTVNAMGWYRQAPGKERELVAAITGRGGNTNYADSLKGRFTISRDNAKNTVYLQMNSQKPEDTAVFYCYARYHGRAKHDYWGQGTQVTVSS,polyreactivity (PSR sort gate),high polyreactivity
QVQLVESGGVLVQAGGSLRLSCAASGSIFWSNAMGWSRQAPGKERELVAAITTSDGSTYYADSVKGRFTISRDHAKNTVYLQMNSLKPEDSAVYYCAADASTWYTEEYWGQGTQVTVSS,polyreactivity (PSR sort gate),low polyreactivity
QVQLVESGGVLVQAGGSLRLSCAASGSIFYSYAMGWYRQAPGKDRELVAAITRSGGSTYYADSVKGRFTISRENAKNTVYVQMHSLKPEDTAGYYCNARGKGDYYWGQGTQVTVSS,polyreactivity (PSR sort gate),high polyreactivity
QVQLVESGGVLVQAGGSLRLSCAASGSTFGLNAMGWYRQAPGKERELVAAITRSDITNYADSVKGRFTISRDNAKNTVYLQMNSLKPEDTAVYYCAARGLWPYDYWGQGTQVTVSS,polyreactivity (PSR sort gate),low polyreactivity
QVQLVESGGVLVQAGGSLRLSCAASGSTFHRSAMGWYRQAPGKERELVATINLNTGSTYADSVKGRFTISRDNAKNTVYLQMNSLKPEDTAVYYCAAYGRWPFTWYNYWGQGTQVTVSS,polyreactivity (PSR sort gate),low polyreactivity
QVQLVESGGVLVQAGGSLRLSCAASGSTFSYYTMGWYRQAPGKERELVATISKRGGTTSYADSVKGRFTISRDNAKNTVYLQMNSLKPEDTAVYYCAARYSKVHYAYDYWGQGTQVTVSS,polyreactivity (PSR sort gate),high polyreactivity
QVQLVESGGVLVQAGGSLRLSCAASGSTFYNNAMGWYRQAPGKERALVATISSGGGSTYYADSVKGRFTISRDNEKNTVYLQMNSLKPEDTAVYYCAAYVLPYGEYDYWGQGTQVTVSS,polyreactivity (PSR sort gate),low polyreactivity
QVQLVESGGVLVQAGGSLRLSCAASGSTLSPYVMGWYRQAPGKERELVATISRSGGRTYYADSVKGRFTISRDNAKNTVYLQMNSLKPEETAVYYCAARTYYWGALIVSYDYWGQGTQVTVSS,polyreactivity (PSR sort gate),low polyreactivity
QVQLVESGGVLVQAGGSLRLSCAASGTFVVNDMGWYRQGPGKERELVAALSWSGGSTYYADSVKGRFTISRDNAKNTVYLQMTSLKPEDTAVYYCAADNWWVYPVWYENDYWGQGTQVTVSS,polyreactivity (PSR sort gate),low polyreactivity
QVQLVESGGVLVQAGGSLRLSCAASGTFYPNARGWYRQAPGKDRELVAALSEDGGGTYYADSVKGRFTISRDNAKNTVYLQMNSLKPEDTAVYYCAAEYYDYWYTFDYWGQGTQVTVSS,polyreactivity (PSR sort gate),high polyreactivity
QVQLVESGGVLVQAGGSLRLSCAASGYIFEGNAMGWYRQAPGKERDFVAAITKRGGSTYYADSVKGRFTISRDNAKNTVYLQMNSLKPEDTAVYYCAADRSYPRAGRYDYWGQVTQVTVSS,polyreactivity (PSR sort gate),low polyreactivity
QVQLVESGGVLVQAGGSLRLSCAASRSIFQGYVMGWYRQAPGKERELVAAISYSGDSTYYADSVKGRFTNSRDNAKNTVSLQINSVKPEDTAVYYCNAYRNRYGYRTSSRRYGYWGQGTQVTVSS,polyreactivity (PSR sort gate),high polyreactivity
QVQLVESGGVLVQAGGSLRLSCAASRSTFTSYAMGWSRQAPGKERELVADISFSGGSTYYADSVKGRFTISRDIAKNSVYSQMNRLTPEDTAVYSCAARIYKRYYWGQGTQVTVSS,polyreactivity (PSR sort gate),high polyreactivity
QVQLVESGGVLVQAGGSLRLSCAASVGIFDYYTMGWYRQAPGKERELVAAISASGGITYYADSVKGRFTISRDNANNTVYLQMNSMKPEDTAVYYCAAGVRNDYWWYYYWGQGTQVTVSS,polyreactivity (PSR sort gate),high polyreactivity
QVQLVESGGVLVQAGGSLRLSCAAYGFSFNDYAMGWYRQAPGKERELVAAIDWSGGRTYYADSVKGRFTISRDNAKNTVYLQMNSLKPEDTAVYYCAAVLYSRLYWYRLDYWGQGTQVTVSS,polyreactivity (PSR sort gate),low polyreactivity
QVQLVESGGVLVQAGGSLRVSCAASGGIFPRYTMGWSRQAPGKERELVASITRSGASTYYADSVKGRFTISRDKAKNTVYLPINSQKPEDTWFYYVISDVYVYSVTSHYTSSRLDYWGQGTQVTVSS,polyreactivity (PSR sort gate),high polyreactivity
QVQLVESGGVLVQAGRSLRLSCAASGSPFRIYAMGWYRQAPGKERELVAAISSGGRTNYADSVKGRFTISRDNAKNTVYLQMNSLKPEDTAVYYCATVGYSSSTSGNRYGRAYYYWGQGTQVTVSS,polyreactivity (PSR sort gate),high polyreactivity
QVQLVESGGVLVQGGGSLRLSCAASGSIFPFYALGWYRQAPGKERELVATNSWSGGRTYYADSVKGRFTKSRDNAKTNVYLQINILIPEDTAVYYCAAGSYHYPNAYYYWGQGTQLTVSS,polyreactivity (PSR sort gate),high polyreactivity
QVQLVESGIGLVQAGGSLRLSCAASGRTLGGNAMGWYRQAPGKERELVAAINWSGGITYYADSVKGRFTISRDNAKNTVYLQMNSLKPEDTAVYYCARYKYNRQTRVEYGYWGQGTLVTVSS,polyreactivity (PSR sort gate),high polyreactivity
QVQLVESGRGLDQAGGSLRLICYASGRTFLYNAMGWFRQSPGKERELVAAIRWSGGTTYYADSVKGRFTISRDNSKNNVYLQMNSLKPEDTAIYYCAARWGQYYGGVRYGYWGQGTQVTVSS,polyreactivity (PSR sort gate),high polyreactivity
QVQLVESGRGLFHAGGSLRLSCAASGNTFGKYDMGWSIQAPGKERELVAAISKSSGSTYYADSVKGRFTISRDNAKNTVYFQMNSLKPEDTAVYYCAAEAYRYAWYDYWGQGTQVTVSS,polyreactivity (PSR sort gate),high polyreactivity
QVQLVESGRGLFQAGGSLRISCAASGSTYQFYAMGWYRQAPGIERELVASIRVRSGTTYYADSVKGRFTISRDNAKNTVYLQMNSLKPEDTAVYYCASGRPYYGRKYDYWGQGTQVTVSS,polyreactivity (PSR sort gate),high polyreactivity
QVQLVESGRGLFQSGGSLRLSCAASGRTFVPYAMGWYRQAPGKESELVAAISYSGDSTYYADSVKGRFTISRDNAKNTVYLQMKSLIPEDTAVYYCAKRGPVRNTAYDYWGQGTQVTVSS,polyreactivity (PSR sort gate),low polyreactivity
QVQLVESGRGLVLAGGSLRLSCAASGRIFRYYAMGWYRQATGKERELVAGISWRGSSTYYADSVKGRFTISRDNAKNTVYLQMNSLKPEDTAVYYCNRDQSYIPVTGGRFYYWGQGTQVTVSS,polyreactivity (PSR sort gate),high polyreactivity
QVQLVESGRGLVQAGCSLRLSCPASGIIFTTYDMGWYRQAPGKERELVAAISSSTTNTYYADSVKWRFTISRDNAMNTVYLQMNSLKPEETAVYYCAAPYKSNAGFDYWGQGTQVTVSS,polyreactivity (PSR sort gate),low polyreactivity
QVQLVESGRGLVQAGGRLRLSCAASGRTFSRNAMGRYRQAPGKERELVAAISFRGVSTYYADSEKGRFTISRDNAKNTVYLQLNSLKPEDTAVYYCARRYTSKGGYDYWGQGTQVTVSS,polyreactivity (PSR sort gate),high polyreactivity
QVQLVESGRGLVQAGGSLRISCAASGFTFSRYAMGWYRQAPGKERELVAAISLRGGRTYYADSVKGRFTISRDNAKNTVYLQMNSLKPEDTAVYYCNRDYRGPYYYWGQGTQVTVSS,polyreactivity (PSR sort gate),high polyreactivity
QVQLVESGRGLVQAGGSLRISCAASGSTFYPNAMGWYRQAPGKEREFVAAISTSAGRTYYADSVKGRFTISRDNAKNTVYLQMNSLKPEDTAVYYCNARYWVYYVYEFDSWGQGTQVTVSS,polyreactivity (PSR sort gate),low polyreactivity
QVQLVESGRGLVQAGGSLRLISAASGSIFVHNTMGWYSQAPGKDRELVAAITYSGGSTNYADSVKGRFTISRDNAKNTVYLQMNSLKPEDTAVYYCATRAISQFHSLGYYYWGQGTEVTVSS,polyreactivity (PSR sort gate),low polyreactivity
QVQLVESGRGLVQAGGSLRLRCAASGRNIRAYAMGCYRQAPGTERDLVAAITWSGGGTYYADSVKGRFTISRDNAKNTVYLQMTSLKPEDTAVYYCAAVTTLRPSWKRYYYWGQGTQVTVSS,polyreactivity (PSR sort gate),high polyreactivity
QVQLVESGRGLVQAGGSLRLSCAASGFTFLLNAMGWYRQAPGKERELVAAITYSGGSTYYADSVKGRFTISRDNAKNTVYLQMNSLKPEDTAVYYCAKTSVTISEYEYWGQGTQVTVSS,polyreactivity (PSR sort gate),low polyreactivity
QVQLVESGRGLVQAGGSLRLSCAASGFTFRNYAMGWYRQAPGKERELVAAITRRGGSTYYADSVKGRFTISRDNAKNTVYLQMNSLKTEDTAVYYCNADREVPWGKDNLDYWGQGTQVTVSS,polyreactivity (PSR sort gate),high polyreactivity
QVQLVESGRGLVQAGGSLRLSCAASGFTFRYYAMGWYRQAPGTERELVAAITYSGGGTYYADSVKGRFTISRDNANYTVYLQMNSLKPEDSAVYYCARRGRKAYAYWGQGTQVTVSS,polyreactivity (PSR sort gate),high polyreactivity
QVQLVESGRGLVQAGGSLRLSCAASGGTFSPYAMGWYSQGPGKDRELVASITGSGGSTYYADSVKGRFTISRGNATTTVNLQMTSLNPEDTAVYYCAAQGYWTYWPYLLRLYDYWGQGTQVTVSS,polyreactivity (PSR sort gate),low polyreactivity
QVQLVESGRGLVQAGGSLRLSCAASGLILGVNVMGWYRQAPGKERELVAAISGGGRTYYADSVKGRFTISRDNAKNTVYLQMNSLKPDDTAVYYCATVRRRLSLTYDYWGQVTQVTVSS,polyreactivity (PSR sort gate),high polyreactivity
QVQLVESGRGLVQAGGSLRLSCAASGRIFGIYAMGWHRQAPGKEMELVATITDGTITNYADSVKGRFTISRDNAKNTVYLQMNSLKPEDTAVYYCAAGTQAHAYVVRPIEMDYWGQGTQVTVSS,polyreactivity (PSR sort gate),low polyreactivity
QVQLVESGRGLVQAGGSLRLSCAASGRIFGRNTIGWYRQAPRKEREMVAVISFRGGSTYADSVKGRFTISRDNAKNTVYLQMNSLKPEDTAVYYCARTAYSTRPYRFDYWGQGTQVTVSS,polyreactivity (PSR sort gate),high polyreactivity
